Experimental data published in PMC2064084 (The Journal of Cell Biology, 2007).

T1: C448Y/E442Q Spastin (human, UniProt Q9UBP0 228-616, E442Q | C448Y)
T1 sequence: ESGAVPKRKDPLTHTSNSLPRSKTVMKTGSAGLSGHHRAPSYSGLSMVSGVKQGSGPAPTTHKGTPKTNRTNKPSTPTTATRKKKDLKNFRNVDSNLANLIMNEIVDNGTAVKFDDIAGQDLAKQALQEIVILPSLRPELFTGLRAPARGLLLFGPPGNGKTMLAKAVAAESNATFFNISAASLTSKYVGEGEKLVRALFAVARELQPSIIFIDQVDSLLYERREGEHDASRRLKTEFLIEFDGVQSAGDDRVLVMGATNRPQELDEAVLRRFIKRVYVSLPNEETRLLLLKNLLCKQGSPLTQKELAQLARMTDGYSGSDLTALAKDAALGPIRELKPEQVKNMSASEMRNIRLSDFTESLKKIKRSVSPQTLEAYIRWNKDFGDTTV


Columns and labels:
AUC = target: the molecule itself; assay: AUC
SEC = target: the molecule itself; assay: SEC
C448Y/E442Q Spastin = target: T1, C448Y/E442Q Spastin; assay: pull-down

Row | Binder | binding result (SEC) | other results
1 | E442Q Spastin (enzyme) ESGAVPKRKDPLTHTSNSLPRSKTVMKTGSAGLSGHHRAPSYSGLSMVSGVKQGSGPAPTTHKGTPKTNRTNKPSTPTTATRKKKDLKNFRNVDSNLANLIMNEIVDNGTAVKFDDIAGQDLAKQALQEIVILPSLRPELFTGLRAPARGLLLFGPPGNGKTMLAKAVAAESNATFFNISAASLTSKYVGEGEKLVRALFAVARELQPSIIFIDQVDSLLCERREGEHDASRRLKTEFLIEFDGVQSAGDDRVLVMGATNRPQELDEAVLRRFIKRVYVSLPNEETRLLLLKNLLCKQGSPLTQKELAQLARMTDGYSGSDLTALAKDAALGPIRELKPEQVKNMSASEMRNIRLSDFTESLKKIKRSVSPQTLEAYIRWNKDFGDTTV |  | stoichiometry N (AUC): 6
2 | R451G/E442Q Spastin (enzyme) ESGAVPKRKDPLTHTSNSLPRSKTVMKTGSAGLSGHHRAPSYSGLSMVSGVKQGSGPAPTTHKGTPKTNRTNKPSTPTTATRKKKDLKNFRNVDSNLANLIMNEIVDNGTAVKFDDIAGQDLAKQALQEIVILPSLRPELFTGLRAPARGLLLFGPPGNGKTMLAKAVAAESNATFFNISAASLTSKYVGEGEKLVRALFAVARELQPSIIFIDQVDSLLCERGEGEHDASRRLKTEFLIEFDGVQSAGDDRVLVMGATNRPQELDEAVLRRFIKRVYVSLPNEETRLLLLKNLLCKQGSPLTQKELAQLARMTDGYSGSDLTALAKDAALGPIRELKPEQVKNMSASEMRNIRLSDFTESLKKIKRSVSPQTLEAYIRWNKDFGDTTV | binds | 
3 | GST–tubulin tail (GST fused to the C-terminal 104 amino acids of murine α-tubulin), ending in Tyr (domain or fragment) not shown |  | binding result (C448Y/E442Q Spastin): binds
4 | A457E/E442Q Spastin (enzyme) ESGAVPKRKDPLTHTSNSLPRSKTVMKTGSAGLSGHHRAPSYSGLSMVSGVKQGSGPAPTTHKGTPKTNRTNKPSTPTTATRKKKDLKNFRNVDSNLANLIMNEIVDNGTAVKFDDIAGQDLAKQALQEIVILPSLRPELFTGLRAPARGLLLFGPPGNGKTMLAKAVAAESNATFFNISAASLTSKYVGEGEKLVRALFAVARELQPSIIFIDQVDSLLCERREGEHDESRRLKTEFLIEFDGVQSAGDDRVLVMGATNRPQELDEAVLRRFIKRVYVSLPNEETRLLLLKNLLCKQGSPLTQKELAQLARMTDGYSGSDLTALAKDAALGPIRELKPEQVKNMSASEMRNIRLSDFTESLKKIKRSVSPQTLEAYIRWNKDFGDTTV | binds | 
